Assay results taken from article PMC9083066.

Tested on: T1, FabT (Enterococcus faecalis), ORF:b010fabc
T1 sequence: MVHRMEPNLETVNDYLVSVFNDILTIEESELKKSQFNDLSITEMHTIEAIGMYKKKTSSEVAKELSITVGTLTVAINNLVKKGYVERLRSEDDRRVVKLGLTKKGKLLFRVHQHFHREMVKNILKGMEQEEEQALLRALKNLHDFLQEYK
Test: EMSA
Conditions: 10 nM DNA, 0.1 uM FabT, 0-10 uM acyl-ACP, 10 mM Tris-HCl pH 7.0, 50 mM NaCl, 1 mM EDTA, 1 mM DTT, 10% glycerol, room temperature, 30 min; 6% native PAGE

**Q.** Which binding does the source give for “GTCAGGATCCGTCGACATCTGTATTCACCTCCACTGCTTTTGAAAAAAGGTTCTTTCTTTTACTAAAACGCTAAGATACATTGTACTCACAATTTGGGTATTTGTCCATCTTTTTTTCATTTGAGTAACAAACTGATGTCAAGACAATTGCAAATTACTGCAGAATTCTGAC (double strand) [E. faecalis acpB promoter]” here?
**A.** no binding
